According to patent US20240218342A1, “SITE-SPECIFIC GLYCAN REMODELING OF LYSOSOMAL ENZYMES AND APPLICATIONS THEREOF” (priority 2021, published 2024):

Legend:
[1] = target: Bovine RNase B (bovine) (UniProt P61823)
[2] = target: GlcNAc-RNase B (67) (bovine) (UniProt P61823)
Sequence of GlcNAc-RNase B (67) (bovine) (P61823 27-150): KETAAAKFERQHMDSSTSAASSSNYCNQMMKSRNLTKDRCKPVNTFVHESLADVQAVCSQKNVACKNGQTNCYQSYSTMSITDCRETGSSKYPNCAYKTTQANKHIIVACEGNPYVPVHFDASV

Sequence of Bovine RNase B (bovine) (P61823 27-150): as above

- deglycosylation of RNase B, isolated yield of GlcNAc-RNase B 67 [1]: 86%
- transglycosylation of oxazoline 8 to GlcNAc-RNase B, yield of glycoprotein 68 [2]: 71%
B1: Wild-type Endo-A (enzyme)
chain: STYNGPLSSHWFPEELAQWEPDSDPDAPFNRSHVPLEPGRVANRVNANADKDAHLVSLSALNRHTSGVPSQGAPVFYENTFSYWHYTDLMVYWAGSAGEGIIVPPSADVIDASHRNGVPILGNVFFPPTVYGGQLEWLEQMLEQEEDGSFPLADKLLEVADYYGFDGWFINQETEGADEGTAEAMQAFLVYLQEQKPEGMHIMWYDSMIDTGAIAWQNHLTDRNKMYLQNGSTRVADSMFLNFWWRDQRQSNELAQALGRSPYDLYAGVDVEARGTSTPVQWEGLFPEGEKAHTSLGLYRPDWAFQSSETMEAFYEKELQFWVGSTGNPAETDGQSNWPGMAHWFPAKSTATSVPFVTHFNTGSGAQFSAEGKTVSEQEWNNRSLQDVLPTWRWIQHGGDLEATFSWEEAFEGGSSLQWHGSLAEGEHAQIELYQTELPISEGTSLTWTFKSEHGNDLNVGFRLDGEEDFRYVEGEQRESINGWTQWTLPLDAFAGQTITGLAFAAEGNETGLAEFYIGQLAVGADSEKPAAPNVNVRQYDPDPSGIQLVWEKQSNVHHYRVYKETKHGKELIGTSAGDRIYLEGLVEESKQNDVRLHIEALSETFVPSDARMIDIKSGSF
